This passage reports response results from publication PMC2704394 (2009).

B1: full length S. pombe Pik1, wild type [S. pombe] / purified Cdc4 protein [S. pombe] (parent)
chain 1: MPSSNSGNELLLRFFESAHFTSQLCVAYLSRYPNNIGIHHFLCEKLATFPYEEIEFFIPQLIHLVLNKDSESVALEEFIISQCEQNTQCALITFWYLQAHMVDLGLQPHSSCFKICKRLYNRIQILVFMSSSSLIQSQQKISENVTPALILSGIMLGGVCVPELLKKAGPIAIAQGRKAPRQDPDESDVDVLRRLSTEPRYSLDVLRSSLNNSIVEQHSEVSLRLKAPELTRTHSYQSSATLSIDEQRRVLRSNYFQQEIQFLFALQDISIRLIIVPRQARLSSLRAELALLNNNLPADVNIPLLRSYHKEVSHKIVRIDPKEATILNSAERVPYLIMVEVLSGELSFEPQSKKNKAKVQKIVSHKNQRKRWFDLTDVDPYTNLQDSTDNDISESESEGGDLSMSPLIKGLVPDTLSLSKSFSSFGNVSLQVPSSHRDTDVVLLSGRHSDSDGNGALKRSKIYASEITARMRAAATMLSQLDAEGSRRPKAETERIKNSIILDMQRLEEERLNEPSIYPVSVDISCAEDLRFGKETQKAERKGDRDDPSAATFQEDWYAKKERIRKSSPYGHYPNWDLVSVIVKTGADLRQETFACQLIYAFQRVWLECKEKVWVRRMKILVTGDNSGLIETITNAISVHSIKKNLTKQLREAELAQGKIAGKNVVTLKDYFIKQFGDPNSSRYRQAQTNFLQSLVAYSIISYLLQLKDRHNGNVLIDSEGHIIHIDFGFLLTNTPGNVGFESAPFKLTADYLEILDDRFDEYRSLMKAAFKSVRKNADQIILLVEVMQNNSTMPCFRAGENTSAQLLQRFQLQLGDKECDDFVDLLIQKANCSVWTRLYDLFQNITNGIY
chain 2: MSTDDSPYKQAFSLFDRHGTGRIPKTSIGDLLRACGQNPTLAEITEIESTLPAEVDMEQFLQVLNRPNGFDMPGDPEEFVKGFQVFDKDATGMIGVGELRYVLTSLGEKLSNEEMDELLKGVPVKDGMVNYHDFVQMILAN

Variants of B1 are the subject of the first assay. Description: sandwich ELISA. The conditions noted are these: with purified Cdc4 protein [S. pombe]; about 7 µg lysate protein; cells grown in the absence of thiamine; Cdc4-coated wells; parent: 0.02; read off a plot.
As for chain 1 D709A, the response worked out at 0.083 Absorbance.

The assay is the same for the next values; noted with them: with purified Cdc4 protein [S. pombe]; about 14 µg lysate protein; cells grown in the absence of thiamine; Cdc4-coated wells; parent: 0.03; read off a plot.
For the variant chain 1 D709A, the response worked out at 0.13 Absorbance.

Still in this assay, the particulars now being: with purified Cdc4 protein [S. pombe]; about 28 µg lysate protein; cells grown in the absence of thiamine; Cdc4-coated wells; parent: 0.073; read off a plot.
Take chain 1 D709A: the response stood at 0.21 Absorbance.

Still in this assay, the particulars now being: with purified Cdc4 protein [S. pombe]; about 56 µg lysate protein (highest point of 2-fold serial dilution); cells grown in the absence of thiamine; Cdc4-coated wells; parent: 0.27; read off a plot.
chain 1 D709A: the response was 0.57 Absorbance.
